Each block holds one molecule with its values, some of them ahead of it.
Key:
human brain capillaries = assay: Accumulation/uptake of [125I]-p97 in isolated human brain capillaries; format: binding; settings: for Inhibition of [125I]-p97 binding/accumulation in human brain capillaries: competitor 5 micromolar, 100 nM p97, 1 h at 37° C. (FIG. 5)
Description: FIG. 5. Accumulation of p97 in human brain capillaries. Accumulation of [^125I]-p97 was measured at 37° C. for 1 h in isolated human brain capillaries (100 μg/assay). The incubation medium contained [^125I]-p97 and a final concentration of 100 nM p97 in Ringer/Hepes solution. The accumulation of [^125I]-p97 was performed in the presence or absence of 5 μm cold-p97, holo-transferrin or lactoferrin. […] The suspension was filtered under vacuum through a […] pore size Millipore filter. The filter was rinsed with 8 ml of stop solution, and the radioactivity was counted. Nonspecific binding of the radioactivity to the capillaries was determined by the addition of the ice-cold stop solution to the capillaries before adding the incubation medium. This value was subtracted from accumulation values obtained following an 1 h incubation. The results were expressed as ng of [^125I]-p97 accumulated per μg of brain capillaries.
FIG. 16 illustrates the identification of a p97 receptor according to ligand specificity. FIG. 16a, Uptake of [^125I]-p97 into human brain capillaries. The uptake of [^125I]-p97 at 100 nM (control) into isolated human brain capillaries was measured for 1 h at 37° C. in the presence of a 50-fold molar excess of unlabelled p97, human holo-transferrin or human lactoferrin. (*[…] Student's t-test (n=5); FIG. 16b, Effect of RAP on [^125I]-p97 transcytosis across BBCEC monolayers. Apical-to-basal transport of [^125I]-p97 was measured in the presence (closed circles) or absence (open circles) of RAP (25 μg/ml) (n=5); FIG. 16c, Inhibition of bovine [^125I]-lactoferrin transport by p97. Transcytosis of bovine [^125I]-lactoferrin (50 nM) was measured in the presence (closed circles) or absence (open circles) of unlabelled p97 (5 μM) at 37° C. (n=3).
A. Isolation of human brain capillaries. […]
B. p97 accumulation in human brain capillaries. […] Accumulation of [^125I]-p97 was measured at 37° C. for 1 h in isolated human brain capillaries (100 μg/assay). […]

BBCEC monolayers = assay: Accumulation of ligands in BBCEC monolayers; format: cell-based, bovine; settings: for Accumulation in the cell monolayer of heat denatured ligand compared to normal ligand: ligand boiled 30 mins, 37° C. (FIG. 7)
Description: (§1) FIG. 7 illustrates the results of experiments where the ligands p97, Lf and Tf were heated or not heated prior to the binding study. In all cases, binding experiments were conducted in the transwell apparatus as described previously, with the exception that binding was conducted at either 4° C. or at 37° C. For the 37° C. trial, a separate experiment was conducted where the ligand was boiled for 30 mins then rapidly cooled prior to administration on the transwell plates.
FIG. 13 illustrates the transcytosis and accumulation of p97 and transferrin in BBCEC monolayers. FIG. 13a, Transcytosis experiments were performed at 37° C. (solid bars) or 4° C. (white bars). [^125I]-p97 or bovine [^125I]-holo-transferrin (1 mg/ml) was added to the upper side of the cell-covered filter. At the end of the experiment, radiolabelled proteins were measured in the lower chamber of each well by TCA precipitation (n=4). Controls were also performed at 37° C. with denatured [^125I]-p97 or bovine [^125I]-holo-transferrin boiled for 30 min (grey bars) (n=2); FIG. 13b, Biospecific interaction analysis was performed with native or boiled p97 for the indicated times. MAb L235 (5 μg) was immobilized on a sensor chip (SM5) using standard procedures incorporating NHS, EDC and ethanolamine. Native and boiled p97 (5 to 30 min) diluted at 1 mg/ml in Ringer/Hepes was cooled and injected into the BIAcore. The surface plasmon resonance response obtained for native p97 and boiled p97 was plotted (in relative units (RU)) as a function of time; FIG. 13c, The accumulation of both proteins into BBEC cells were also measured. Briefly, after incubation at 37° C. (solid bars) or 4° C. (white bars) with either [^125I]-protein, cells were washed four times with cold PBS. Accumulation of both denatured proteins (grey bars) was also measured at 37° C. Filters were then removed, and the radioactivity associated with the cells was quantified (n=3).
as §1, with “In” for “FIG. 7 illustrates the results of experiments where the ligands p97, Lf and Tf were heated or not heated prior to the binding study. In”

- Inhibition of [125I]-p97 binding/accumulation in human brain capillaries (human brain capillaries): significantly inhibits
- Competition with p97 for receptor binding in human brain capillaries, repeat experiment (human brain capillaries; performed identically to FIG. 5 (FIG. 6)): competes
B1: lactoferrin: lactoferrin (Lf), LRP ligand used as competitor (protein, UniProt P02788 20-710, looked up)
Lactotransferrin: GRRRSVQWCAVSQPEATKCFQWQRNMRKVRGPPVSCIKRDSPIQCIQAIAENRADAVTLDGGFIYEAGLAPYKLRPVAAEVYGTERQPRTHYYAVAVVKKGGSFQLNELQGLKSCHTGLRRTAGWNVPIGTLRPFLNWTGPPEPIEAAVARFFSASCVPGADKGQFPNLCRLCAGTGENKCAFSSQEPYFSYSGAFKCLRDGAGDVAFIRESTVFEDLSDEAERDEYELLCPDNTRKPVDKFKDCHLARVPSHAVVARSVNGKEDAIWNLLRQAQEKFGKDKSPKFQLFGSPSGQKDLLFKDSAIGFSRVPPRIDSGLYLGSGYFTAIQNLRKSEEEVAARRARVVWCAVGEQELRKCNQWSGLSEGSVTCSSASTTEDCIALVLKGEADAMSLDGGYVYTAGKCGLVPVLAENYKSQQSSDPDPNCVDRPVEGYLAVAVVRRSDTSLTWNSVKGKKSCHTAVDRTAGWNIPMGLLFNQTGSCKFDEYFSQSCAPGSDPRSNLCALCIGDEQGENKCVPNSNERYYGYTGAFRCLAENAGDVAFVKDVTVLQNTDGNNNEAWAKDLKLADFALLCLDGKRKPVTEARSCHLAMAPNHAVVSRMDKVERLKQVLLHQQAKFGRNGSDCPDKFCLFQSETKNLLFNDNTECLARLHGKTTYEKYLGPQYVAGITNLKKCSTSPLLEACEFLRK
- Accumulation of Lf compared with p97 at the end of the experiment (BBCEC monolayers; FIG. 7): almost twice as high
- Accumulation in the cell monolayer of heat denatured ligand compared to normal ligand (BBCEC monolayers): significantly lower accumulation

- Inhibition of [125I]-p97 binding/accumulation in human brain capillaries (human brain capillaries): significantly inhibits
B2: p97: recombinant human melanotransferrin (p97), provided by Synapse Technologies (protein, UniProt P08582 20-709, looked up)
Melanotransferrin: GMEVRWCATSDPEQHKCGNMSEAFREAGIQPSLLCVRGTSADHCVQLIAAQEADAITLDGGAIYEAGKEHGLKPVVGEVYDQEVGTSYYAVAVVRRSSHVTIDTLKGVKSCHTGINRTVGWNVPVGYLVESGRLSVMGCDVLKAVSDYFGGSCVPGAGETSYSESLCRLCRGDSSGEGVCDKSPLERYYDYSGAFRCLAEGAGDVAFVKHSTVLENTDGKTLPSWGQALLSQDFELLCRDGSRADVTEWRQCHLARVPAHAVVVRADTDGGLIFRLLNEGQRLFSHEGSSFQMFSSEAYGQKDLLFKDSTSELVPIATQTYEAWLGHEYLHAMKGLLCDPNRLPPYLRWCVLSTPEIQKCGDMAVAFRRQRLKPEIQCVSAKSPQHCMERIQAEQVDAVTLSGEDIYTAGKTYGLVPAAGEHYAPEDSSNSYYVVAVVRRDSSHAFTLDELRGKRSCHAGFGSPAGWDVPVGALIQRGFIRPKDCDVLTAVSEFFNASCVPVNNPKNYPSSLCALCVGDEQGRNKCVGNSQERYYGYRGAFRCLVENAGDVAFVRHTTVFDNTNGHNSEPWAAELRSEDYELLCPNGARAEVSQFAACNLAQIPPHAVMVRPDTNIFTVYGLLDKAQDLFGDDHNKNGFKMFDSSNYHGQDLLFKDATVRAVPVGEKTTYRGWLGLDYVAALEGMSSQQC
- Accumulation in the cell monolayer of heat denatured ligand compared to normal ligand (BBCEC monolayers): significantly lower accumulation
- Accumulation in BBCE cells (BBCEC monolayers; native proteins (FIG. 13c)): 5.7 μg/cm2
